Test results taken from US20110009343A1, “MODULATORS OF AMYLOID AGGREGATION” (Praecis Pharmaceuticals, Inc., priority 1995, published 2011).
Marks after values point to notes of the source that are not given here. Numbered stars: 1 amine (or outer) side, 2 acyl side, 3 side chain; on linkers, the order of the positions; unused ones are H or OH. Square brackets hold non-standard residues; d marks the D form. Primed or numbered codes have the meaning given here. Peptide text beside a SMILES is read from it. * marks the point of attachment. Cholyl = C[C@H](CCC(=O)*)[C@H]1CC[C@H]2[C@@H]3[C@H](O)C[C@@H]4C[C@H](O)CC[C@]4(C)[C@H]3C[C@H](O)[C@]12C; Adp″ = aminoethyldibenzofuranylpropanoic acid, NCCc1cccc2c1oc1c(CCC(=O)*)cccc12; X2 = O=C(C1(O)C[C@H](O)[C@@H](N[*:1])[C@H]([C@H](O)[C@H](O)CO)O1)[*:2]; X3 = N=C1N[C@H]2[C@H](CS[C@H]2CCCCC(=O)*)N1; NMeV = CN[C@H](C(=O)O)C(C)C; CA = not defined here

How the values were obtained:
Aβ1-40 [1] = molecular target: T1, Aβ1-40 (Homo sapiens, UniProt P05067); assay: Seeded extension assay (thioflavin T fluorescence); type: biochemical; details: Table V; 25 mole % inhibitor
T1 construct: (β-AP1-40) was obtained commercially from Bachem (Torrance, Calif.); purchased Bachem (Torrance, Calif.)
Procedure: The seeded extension assay can be employed to measure the rate of Aβ fiber formed in a solution of Aβ monomer following addition of polymeric Aβ fiber “seed”. The ability of test compounds to prevent further deposition of monomeric Aβ to previously deposited amyloid is determined using a direct indicator of β-sheet formation using fluorescence. In contrast with the nucleation assay, the addition of seed provides immediate nucleation and continued growth of preformed fibrils without the need for continuous mixing, and thus results in the absence of a lag time before polymerization starts. Since this assay uses static polymerization conditions, the activity of positive compounds in the nucleation assay can be confirmed in this second assay under different conditions and with an additional probe of amyloid structure.
In the seeded extension assay, monomeric Aβ140 is incubated in the presence of a “seed” nucleus (approximately ten mole percent of Aβ that has been previously allowed to polymerize under controlled static conditions). Samples of the solution are then diluted in thioflavin T (Th-T). The polymer-specific association of Th-T with Aβ produces a fluorescent complex that allows the measurement of the extent of fibril formation (Levine, H. (1993) Protein Science 2:404-410). In particular, association of Th-T with aggregated β-AP, but not monomeric or loosely associated β-AP, gives rise to a new excitation (ex) maximum at 450 nm and an enhanced emission (em) at 482 nm, compared to the 385 nm (ex) and 445 nm (em) for the free dye. Small aliquots of the polymerization mixture contain sufficient fibril to be mixed with Th-T to allow the monitoring of the reaction mixture by repeated sampling. A linear growth curve is observed in the presence of excess monomer. The formation of thioflavin T responsive β-sheet fibrils parallels the increase in turbidity observed using the nucleation assay.
To prepare the stock seed, 1 ml of the Aβ monomer preparation, is incubated for approximately 8 days at 37° C. and sheared sequentially through an 18, 23, 26 and 30 gauge needle 25, 25, 50, and 100 times respectively. 2 μl samples of the sheared material is taken for fluorescence measurements after every 50 passes through the 30 gauge needle until the fluorescence units (FU) plateau (approx. 100-150×). Test compounds are prepared by dissolving an appropriate amount of test compound in 1×PBS to a final concentration of 1 mM (10× stock). If insoluble, the compound is dissolved in 1/10 volume of DMSO and diluted in 1×PBS to 1 mM. A further 1/10 dilution is also prepared to test each candidate at both 100 μM and 10 μM.
To perform the seeded extension assay, each sample is set up with 50 μl of 200 μM monomer, 125 FU sheared seed (a variable quantity dependent on the batch of seed, routinely 3-6 μl) and 10 μl of 10× modulator solution. The sample volume is then adjusted to a final volume of 100 μl with 1×PBS. Two concentrations of each modulator typically are tested: 100 μM and 10 μM, equivalent to a 1:1 and a 1:10 molar ratio of monomer to modulator. The controls include an unseeded reaction to confirm that the fresh monomer contains no seed, and a seeded reaction in the absence of any modulators, as a reference to compare against candidate modulators. The assay is incubated at 37° C. for 6 h, taking 2 μl samples hourly for fluorescence measurements. To measure fluorescence, a 2 μl sample of Aβ is added to 400 μl of Thioflavin-T solution (50 mM Potassium Phosphate […] pH 7.5). The samples are vortexed and the fluorescence is read in a 0.5 ml micro quartz cuvette at EX 450 nm and EM 482 nm (Hitachi 4500 Fluorimeter).

Aβ1-40 [2] = molecular target: T1, Aβ1-40; assay: Nucleation assay (turbidity, A405 nm); type: biochemical; details: for % Inucl'n (percent reduction in maximum observed turbidity) / ΔLag (ratio of lag time with test compound to lag time of control) / inhibition at 100 mol %: Table V; for inhibition at 100 mol %: read-out: % Inucl'n (percent reduction in maximum observed turbidity);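 on all read-outs here: synthetic Aβ monomer polymerization followed by turbidity in 96-well plates with continuous shaking, read every 15 minutes over 5 hours, compared against wells lacking test compound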
Excerpt: The nucleation assay is employed to determine the ability of test compounds to alter (e.g. inhibit) the early events in formation of β-AP fibers from monomeric β-AP. […] The time delay before polymerization of β-AP monomer can be quantified as well as the extent of formation of insoluble fiber by light scattering (turbidity). Polymerization reaches equilibrium when the maximum turbidity reaches a plateau. The turbidity of a solution of natural β-AP in the absence or presence of various concentrations of a β-amyloid modulator compound is determined by measuring the apparent absorbance of the solution at 405 nm (A405 nm) over time. The threshold of sensitivity for the measurement of turbidity is in the range of 15-20 μM β-AP. […] This assay can be performed using stirring or shaking to accelerate polymerization, thereby increasing the speed of the assay. Moreover the assay can be adapted to a 96-well plate format to screen multiple compounds.
HFIP-solubilized peptide is sonicated in a waterbath sonicator for 5 mM at highest setting, then evaporated to dryness under a stream of argon. The peptide film is resuspended in anhydrous dimethylsulfoxide (DMSO) at a concentration of 6.9 mg/ml (25× concentration), sonicated for 5 mM as before, then filtered through a 0.2 micron nylon syringe filter (VWR cat. No. 28196-050). Test compounds are dissolved in DMSO at a 100× concentration. […] Ten microliters of the mixture is then added to the bottom of a well of a Corning Costar ultra low binding 96-well plate (Corning Costar, Cambridge Mass.; cat. No. 2500). Ninety microliters of water is added to the well, the plate is shaken on a rotary shaken at a constant speed at room temperature for 30 seconds, an additional 100 μl of 2×PTL buffer (20 mM NaH2PO4, 300 mM NaCl, pH 7.4) is added to the well, the plate is reshaken for 30 seconds and a baseline (t=0) turbidity reading is taken by measuring the apparent absorbance at 405 nm using a Bio-Rad Model 450 Microplate Reader. The plate is then returned to the shaker and shaken continuously for 5 hours. Turbidity readings are taken at 15 minute intervals.
β-amyloid aggregation in the absence of any modulators results in enhanced turbidity of the natural β-AP solution (i.e., an increase in the apparent absorbance at 405 nm over time).
Accordingly a fold increase in lag time of 1.0 indicates no change in lag time, whereas numbers >1.0 indicate an increase in lag time. The “% inhibition of plateau”, which is a measure of the ability of the compound to decrease the total amount of aggregation, refers to the reduction of the final turbidity in the presence of the test compound expressed as a percent of the control without the test compound.

[3] = 100 mole % inhibitor relative to Aβ1-40
[4] = Table II, 100 mole % vs 50 μM Aβ1-40

T1 sequence (P05067 672-711): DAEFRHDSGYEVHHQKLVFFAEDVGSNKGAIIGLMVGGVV

| Molecule | % Iext'n (percent reduction of thioflavin-T fluorescence) (Aβ1-40 [1]) | % Inucl'n (percent reduction in maximum observed turbidity) (Aβ1-40 [2]; 100 mole % inhibitor) | ΔLag (ratio of lag time with test compound to lag time of control) (Aβ1-40 [2]; [3]) | also measured |
| --- | --- | --- | --- | --- |
| PPI-429: CA-FFV-oh ({CA}-Phe-Phe-Val-OH; reading uncertain; also: printed as PPI-429: CA-FFV-oh) | 7% | −33% | 2.2 | – |
| PPI-393: CA-LVF-oh | 0% | 1% | 1.3 | – |
| PPI-392: CA-VFFA-oh ({CA}-VFFA-OH; reading uncertain; also: printed as CA-VFFA-oh) | 10% | 76% | 2.0 | – |
| PPI-394: CA-VFF-oh ({CA}-Val-Phe-Phe-OH; reading uncertain; also: printed as CA-VFF-oh) | 0% | 55% | 1.8 | – |
| PPI-380: CA-LVFF-oh | 51% | – | – | % Inucl'n (percent reduction in maximum observed turbidity) (Aβ1-40 [2]; 33 mol % inhibitor): 72** %; ΔLag (ratio of lag time with test compound to lag time of control) (Aβ1-40 [2]; 33 mole % inhibitor): 1.8 |
| CC(C)C[C@H](NC(=O)[C@@H](N)CCCCN)C(=O)N[C@H](C(=O)N[C@@H](Cc1ccccc1)C(=O)N[C@@H](Cc1ccccc1)C(N)=O)C(C)C [PPI-387] | 39% | −9% | 1.3 | – |
| CC(C)C[C@H](NC(=O)OC(C)(C)C)C(=O)N[C@H](C(=O)N[C@@H](Cc1ccccc1)C(=O)N[C@@H](Cc1ccccc1)C(=O)N[C@@H](C)C(=O)O)C(C)C [PPI-435] | – | −5% | – | – |
| CC(C)C[C@H](NC(=O)[C@H](CCCCN)NC(=O)[C@H](CCC(N)=O)NC(=O)[C@H](Cc1c[nH]cn1)NC(=O)[C@H](Cc1c[nH]cn1)NC(=O)CC[C@@H](C)[C@H]1CC[C@H]2[C@@H]3[C@H](O)C[C@@H]4C[C@H](O)CC[C@]4(C)[C@H]3C[C@H](O)[C@]12C)C(=O)N[C@H](C(=O)N[C@@H](Cc1ccccc1)C(=O)N[C@@H](Cc1ccccc1)C(=O)O)C(C)C [PPI-347, cholyl-Aβ13-20] (Cholyl-HHQKLVFF-OH) | – | – | – | Fold Increase in Lag Time (Aβ1-40 [2]; Table III, 33 mole %): 2.6 fold; Fold Increase in Lag Time (Aβ1-40 [2]; Table IV, 10 mole %): 2.2 fold |
| PPI-395: CA-FFA-oh ({CA}-Phe-Phe-Ala-OH; reading uncertain; also: printed as CA-FFA-oh) | 6% | 51% | 1.0 | – |
| CC(C)C[C@H](NC(=O)[C@H](CCCCN)NC(=O)CCCC[C@@H]1SC[C@@H]2NC(=N)N[C@@H]21)C(=O)N[C@H](C(=O)N[C@@H](Cc1ccccc1)C(=O)N[C@@H](Cc1ccccc1)C(=O)N[C@@H](C)C(=O)N[C@@H](CCC(=O)O)C(=O)N[C@@H](CC(=O)O)C(=O)N[C@H](C(=O)NCC(=O)N[C@@H](CO)C(=O)N[C@@H](CC(N)=O)C(=O)N[C@@H](CCCCN)C(=O)NCC(=O)N[C@@H](C)C(=O)O)C(C)C)C(C)C [PPI-277] (X3-KLVFFAEDVGSNKGA-OH) | – | – | – | Fold Increase in Lag Time (Aβ1-40 [2]; [4]): 1.2 fold |
| CC(C)C[C@H](NC(=O)[C@H](CCCCN)NC(=O)CC[C@@H](C)[C@H]1CC[C@H]2[C@@H]3[C@H](O)C[C@@H]4C[C@H](O)CC[C@]4(C)[C@H]3C[C@H](O)[C@]12C)C(=O)N[C@H](C(=O)N[C@@H](C)C(=O)N[C@@H](Cc1ccccc1)C(=O)O)C(C)C [PPI-370, cholyl-Aβ16-20 Phe19->Ala] (Cholyl-KLVAF-OH) | – | – | 2.6 | Fold Increase in Lag Time (Aβ1-40 [2]; Table IV, 100 mole %): 2.6 fold; inhibition at 100 mol % (Aβ1-40 [2]; 100 mole % inhibitor): 73% |
| PPI-407: CA-LVFFK-oh | – | – | – | % Inucl'n (percent reduction in maximum observed turbidity) (Aβ1-40 [2]; 33 mol % inhibitor): 100** % |
| C[C@H](CCC(=O)O)[C@H]1CC[C@H]2[C@@H]3[C@H](O)C[C@@H]4C[C@H](O)CC[C@]4(C)[C@H]3C[C@H](O)[C@]12C [PPI-293, Cholic acid, reference compound] | – | – | – | inhibitory activity on Aβ aggregation (Aβ1-40 [2]): had no effect on Aβ aggregation; inhibition at 100 mol % (Aβ1-40 [2]; 100 mole % inhibitor): 0% |
| CC[C@H](C)[C@H](NC(=O)[C@H](C)NC(=O)CNC(=O)[C@H](CCCCN)NC(=O)[C@H](CC(N)=O)NC(=O)[C@H](CO)NC(=O)CC[C@@H](C)[C@H]1CC[C@H]2[C@@H]3[C@H](O)C[C@@H]4C[C@H](O)CC[C@]4(C)[C@H]3C[C@H](O)[C@]12C)C(=O)N[C@H](C(=O)NCC(=O)N[C@@H](CC(C)C)C(=O)N[C@@H](CCSC)C(=O)N[C@H](C(=O)NCC(=O)NCC(=O)N[C@H](C(=O)N[C@H](C(=O)O)C(C)C)C(C)C)C(C)C)[C@@H](C)CC [PPI-284] (Cholyl-SNKGAIIGLMVGGVV-OH) | – | – | – | Fold Increase in Lag Time (Aβ1-40 [2]; [4]): >4.5 fold |
| CC(C)C[C@H](NC(=O)[C@H](CCCCN)NC(=O)CC[C@@H](C)[C@H]1CC[C@H]2[C@@H]3[C@H](O)C[C@@H]4C[C@H](O)CC[C@]4(C)[C@H]3C[C@H](O)[C@]12C)C(=O)N[C@H](C(=O)N[C@@H](Cc1ccccc1)C(=O)N[C@@H](Cc1ccccc1)C(=O)N[C@@H](C)C(=O)N[C@@H](CCC(=O)O)C(=O)N[C@@H](CC(=O)O)C(=O)N[C@H](C(=O)NCC(=O)N[C@@H](CO)C(=O)N[C@@H](CC(N)=O)C(=O)N[C@@H](CCCCN)C(=O)NCC(=O)N[C@@H](C)C(=O)O)C(C)C)C(C)C [PPI-274] (Cholyl-KLVFFAEDVGSNKGA-OH) | – | – | – | Fold Increase in Lag Time (Aβ1-40 [2]; [4]): >4.5 fold |
| PPI-315: CA-HQKLVFF-nh2 (N-terminal CA cap; C-terminal amide) | – | – | – | % Inucl'n (percent reduction in maximum observed turbidity) (Aβ1-40 [2]; 33 mol % inhibitor): 5** % |
| PPI-403: h-DDIII(N-Me-Val)DLL(Adp)-HQKLVFF-oh ({H2N-Asp-Asp-Ile-Ile-Ile-NMeV-Asp-Leu-Leu-Adp″}-HQKLVFF-OH) | – | −75% | 1.4 | – |
| PPI-438: CA-GFF-oh ({CA}-Gly-Phe-Phe-OH; reading uncertain; also: printed as PPI-438: CA-GFF-oh) | – | 0% | 1.0 | – |
| CC[C@H](C)[C@H](NC(=O)[C@H](C)NC(=O)CNC(=O)[C@H](CCCCN)NC(=O)[C@H](CC(N)=O)NC(=O)[C@H](CO)NC(=O)C1(O)C[C@H](O)[C@@H](NC(C)=O)[C@H]([C@H](O)[C@H](O)CO)O1)C(=O)N[C@H](C(=O)NCC(=O)N[C@@H](CC(C)C)C(=O)N[C@@H](CCSC)C(=O)N[C@H](C(=O)NCC(=O)NCC(=O)N[C@H](C(=O)N[C@H](C(=O)O)C(C)C)C(C)C)C(C)C)[C@@H](C)CC (stereo partly drawn) [PPI-286] (Ac-[X2]SNKGAIIGLMVGGVV-OH) | – | – | – | Fold Increase in Lag Time (Aβ1-40 [2]; [4]): 1.3 fold |
| C[C@H](NC(=O)[C@H](C)NC(=O)[C@H](C)NC(=O)[C@H](C)NC(=O)[C@H](C)NC(=O)CC[C@@H](C)[C@H]1CC[C@H]2[C@@H]3[C@H](O)C[C@@H]4C[C@H](O)CC[C@]4(C)[C@H]3C[C@H](O)[C@]12C)C(=O)O [PPI-365, Cholyl-penta-alanine] | – | – | 0.8 | Fold Increase in Lag Time (Aβ1-40 [2]; Table IV, 100 mole %): ~1 fold; inhibition at 100 mol % (Aβ1-40 [2]; 100 mole % inhibitor): -7% |
